According to paper PMC6509359 (Molecular Cell, 2019):

Target: the molecule itself
Test: native gel or EMSA; native PAGE of lysate of untreated HEK293 cells, immunoblotting for the endogenous protein; recombinant USP25 tetramer and dimer fractions as size standard

B1: endogenous USP28 (enzyme, human (endogenous in HEK293), UniProt Q96RU2 1-1077, looked up)
chain: MTAELQQDDAAGAADGHGSSCQMLLNQLREITGIQDPSFLHEALKASNGDITQAVSLLTDERVKEPSQDTVATEPSEVEGSAANKEVLAKVIDLTHDNKDDLQAAIALSLLESPKIQADGRDLNRMHEATSAETKRSKRKRCEVWGENPNPNDWRRVDGWPVGLKNVGNTCWFSAVIQSLFQLPEFRRLVLSYSLPQNVLENCRSHTEKRNIMFMQELQYLFALMMGSNRKFVDPSAALDLLKGAFRSSEEQQQDVSEFTHKLLDWLEDAFQLAVNVNSPRNKSENPMVQLFYGTFLTEGVREGKPFCNNETFGQYPLQVNGYRNLDECLEGAMVEGDVELLPSDHSVKYGQERWFTKLPPVLTFELSRFEFNQSLGQPEKIHNKLEFPQIIYMDRYMYRSKELIRNKRECIRKLKEEIKILQQKLERYVKYGSGPARFPLPDMLKYVIEFASTKPASESCPPESDTHMTLPLSSVHCSVSDQTSKESTSTESSSQDVESTFSSPEDSLPKSKPLTSSRSSMEMPSQPAPRTVTDEEINFVKTCLQRWRSEIEQDIQDLKTCIASTTQTIEQMYCDPLLRQVPYRLHAVLVHEGQANAGHYWAYIYNQPRQSWLKYNDISVTESSWEEVERDSYGGLRNVSAYCLMYINDKLPYFNAEAAPTESDQMSEVEALSVELKHYIQEDNWRFEQEVEEWEEEQSCKIPQMESSTNSSSQDYSTSQEPSVASSHGVRCLSSEHAVIVKEQTAQAIANTARAYEKSGVEAALSEVMLSPAMQGVILAIAKARQTFDRDGSEAGLIKAFHEEYSRLYQLAKETPTSHSDPRLQHVLVYFFQNEAPKRVVERTLLEQFADKNLSYDERSISIMKVAQAKLKEIGPDDMNMEEYKKWHEDYSLFRKVSVYLLTGLELYQKGKYQEALSYLVYAYQSNAALLMKGPRRGVKESVIALYRRKCLLELNAKAASLFETNDDHSVTEGINVMNELIIPCIHLIINNDISKDDLDAIEVMRNHWCSYLGQDIAENLQLCLGEFLPRLLDPSAEIIVLKEPPTIRPNSPYDLCSRFAAVMESIQGVSTVTVK
notes: USP28, endogenous in untreated HEK293 cells; source: endogenous, HEK293 lysate
stoichiometry N: 2
